Laboratory results as given in patent publication US7229755 (Dana-Farber, dated 2007).
One block for each binder: values may come before it.

How the values were obtained:
[1] = target: (Gal4 binding domain)-hMsh2 fusion (pAS1-hMSH2) (human, UniProt P04386 1-147 (Saccharomyces cerevisiae entry), limits assumed); experiment: cell-based or functional assay
[2] = target: T1, hMsh2 protein with a hexa-HIS and factor Xa leader peptide at the N-terminus (overproduced in E. coli from a … (human, UniProt P43246 1-934)); experiment: gel-shift (supershift) of hMsh2 bound to a 32P-labelled 39-bp GT-mismatch duplex, with E. coli extract containing hMlh1
T1 construct: The leader peptide was not cleaved; The preparation was more than 50% pure; also called human Msh2; MSH2hu protein; not shown: hexa-HIS and factor Xa leader peptide from the pET vector derivative (Invitrogen)
Protocol: Mismatch binding by human mismatch repair proteins was studied using a gel-shift binding assay. Briefly, protein fractions are incubated with a ^32P-labelled 39-basepair oligonucleotide duplex that was designed to minimize intramolecular interactions (Oligo Designs), and also contained a GT mismatch at position 20. Incubations were done for 10 minutes at 23° C. in 20 mM Tris (pH 7.5), 50 mM KCl, 1 mM DTT, and 0.1 mM EDTA to allow formation of protein-DNA complexes. Several different competitor nucleic acids (e.g. poly dI-dC, an otherwise identical 39-mer that lacked the mismatch, and/or unlabelled mismatched substrate) were added to minimize nonspecific binding. Reactions were then loaded onto a 6% acrylamide gel in TBE, and were electrophoresed.

β-galactosidase activity (GAL4 promoter-β-galactosidase reporter, yeast Two-Hybrid) [1]: ~100 fold
B1: (Gal4 activation domain)-hMlh1 fusion (pACTII-hMLH1) (other, not shown: large carriers)
chain: MSFVAGVIRRLDETVVNRIAAGEVIQRPANAIKEMIENCLDAKSTSIQVIVKEGGLKLIQIQDNGTGIRKEDLDIVCERFTTSKLQSFEDLASISTYGFRGEALASISHVAHVTITTKTADGKCAYRASYSDGKLKAPPKPCAGNQGTQITVEDLFYNIATRRKALKNPSEEYGKILEVVGRYSVHNAGISFSVKKQGETVADVRTLPNASTVDNIRSIFGNAVSRELIEIGCEDKTLAFKMNGYISNANYSVKKCIFLLFINHRLVESTSLRKAIETVYAAYLPKNTHPFLYLSLEISPQNVDVNVHPTKHEVHFLHEESILERVQQHIESKLLGSNSSRMYFTQTLLPGLAGPSGEMVKSTTSLTSSSTSGSSDKVYAHQMVRTDSREQKLDAFLQPLSKPLSSQPQAIVTEDKTDISSGRARQQDEEMLELPAPAEVAAKNQSLEGDTTKGTSEMSEKRGPTSSNPRKRHREDSDVEMVEDDSRKEMTAACTPRRRIINLTSVLSLQEEINEQGHEVLREMLHNHSFVGCVNPQWALAQHQTKLYLLNTTKLSEELFYQILIYDFANFGVLRLSEPAPLFDLAMLALDSPESGWTEEDGPKEGLAEYIVEFLKKKAEMLADYFSLEIDEEGNLIGLPLLIDNYVPPLEGLPIFILRLATEVNWDEEKECFESLSKECAMFYSIRKQYISEESTLSGQQSEVPGSIPNSWKWTVEHIVYKALRSHILPPKHFTEDGNILQLANLPDLYKVFERC

binding result [2]: binds
B2: hMlh1 protein overproduced in E. coli from pET-hMLH1 constructs (used as clarified bacterial extract) (other)
chain: B1 chain
notes: The protein was not purified and was used as clarified bacterial extract; also called hMLH1 gene product
